assay: yeast display, Sf9 membrane polyspecificity reagent, FACS + sequencing; frameworks hold sequencing errors
Summary of the method: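 A nanobody's polyreactivity label depends on the gate it was sorted from. Yeast display cells were stained with 10% biotinylated, detergent-solubilized Sf9 membrane reagent for 1 hour at 4 °C, enriched on streptavidin microbeads and sorted by FACS. The low and high (top ~1%) gates were set on anti-HA fluorescence for expression and streptavidin fluorescence for reagent binding.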

Sequence | polyreactivity (PSR sort gate)
QDQLVESGGGLVQAGGSLRLICAASGLIFGFNTMACYRQAPGKESEFVAAINGSDGSTYADSVKGRFTISRDNAKNTVYLQMNSLKPEDTAVYYCAARYGSPKEYTYADMDYWGQGTQVTVSS | low polyreactivity
QDQLVESGGGLVQAGGSLRLICAASGRTFGSYTMGWYRQAPGKERELVAAITSGGRTNYADSVKGRFTISRDNAKNTVYLQMNSLKPEDTAVYYCAAGWRGGRYRYFAYDYWGQGTQVTVSS | high polyreactivity
QDQLVESGGGLVQAGGSLRLICAASGSIFTFYDMGWYRQAAGNERELVAAISSGGSTTYADSVKGRFTISRDNAKNTVYLQMNSLKPEDTAFYYCAADSQPYLYPVEYDYWRQGTQVTVSS | low polyreactivity
QDQLVESGGGLVQAGGSLRLICAASGSNFGYYGMGWYRQAPGKEREFVAAITFSGGSTYYADSVKGRFTISRDNAKNTVYLQMNSLKPEDTAVYYFAAVYYGPYTYRHKMYYWGQGTQVTVSS | low polyreactivity
QDQLVESGGGLVQAGGSLRLSCAASAFTFGRNAKGWYRQATGKERELVATITWSGGSTYYADSVKGRFTISRDNAKNTVYLQMNSLKPEDTAVYYCAKQRRYWGQPSRAYEFNYWGQGTQVTVSS | high polyreactivity
QDQLVESGGGLVQAGGSLRLSCAASAIIFYYYAMGSYRQAPGKERELVAAISSSGGRTRYADSVKGRVTISRDNAKNTVYLLMNRLKPEDTAVYYCAAEFIRGYGESYDYWGQGTQVTVSS | low polyreactivity
QDQLVESGGGLVQAGGSLRLSCAASALTFVRYAMGWYRQAPGKERELVAAISSGGSTNYADSVKGSFTISRDNAKNTVYLQMNSLKPEDSAVYYCAAVRYRYPHTMYYWGLGTQVTVSS | high polyreactivity
QDQLVESGGGLVQAGGSLRLSCAASCFTSLIYAMGWYRQAPGKERELVASITWGGGSTYADSVKGRFTISRDNAKNTVSLLMNSLKPEDTAVYYCASLYWWYPFNYWGQGTQVTVSS | low polyreactivity
QDQLVESGGGLVQAGGSLRLSCAASGFIFNKNAMGWYRQAPGKERELVAAITFGGGTTYYADSVKGRFTISRDNAKNTVYLQMNSLKPEDTAVYYCAKRYWRHPVFYLYDYWGQGTQVTVSS | high polyreactivity
QDQLVESGGGLVQAGGSLRLSCAASGFIFRFNARGWYRQAPGKEREVVAVIRWSSGSTYYADSVKGRFTISRDNAKNTVYLQMNSLKPEDTAVYYCAAVDDDYSIVWYYYWGQGTQVTVSS | low polyreactivity
QDQLVESGGGLVQAGGSLRLSCAASGFIFYDNAMGWYRQAPGKERELVAAISAIGGSTYYADSVKGRFTISRDNAKNTVYLQMNSLKPEDTAVYYCAVPEILDPKYQNDYWGQGTQVTVSS | low polyreactivity
QDQLVESGGGLVQAGGSLRLSCAASGFMFSYYAMGWYRQAPGKARELVAAMTSNGGITYYADSVKGRITISRDKAKNTVYLQMNSLKPEDTAVYYCNAYYTSTSYDYWGQGTQVTVSS | high polyreactivity
QDQLVESGGGLVQAGGSLRLSCAASGFNFRYYAMGWYRQAPGKERELVAAISSGGRTSYADSVKGRFTISRDNAKNTVYLQMNSLKPEDTAVYYCAADRWRGLFYYGNDYWGQGTQVTVSS | high polyreactivity
QDQLVESGGGLVQAGGSLRLSCAASGFTFQYYAMGWYRQAPGKERELVAAISRRGGRTDYADSVKGRFTISRDNAKNTVYLQINSLKPEDTEVYYCARDPGAFEYSGQGTQVTVSS | high polyreactivity
QDQLVESGGGLVQAGGSLRLSCAASGFTFRSNAMGWYRQAPGKERELVAAISRTGGSTYYADSVKGRFTISRDNAKNTVYLQMNSLKPEETAVYYCNTVYGKSHYGQAMDSWGQGTQVTVSS | high polyreactivity
QDQLVESGGGLVQAGGSLRLSCAASGFTFSYYTMGWYRHAPGKERELVAAISSTGVSTYYADSVKGRFTISRDNAKNTVYLQMNSLKPEDTAVYYCAADYYGVYEYYYWGQGTQVTVSS | high polyreactivity
QDQLVESGGGLVQAGGSLRLSCAASGFTFYRNAMGWYRQAPGKERELVAAISRGGRTYYADSVKGRFTISRDNAKNTVYLQMNSLNPEDTAVYYCAVGYSGYVSSMDYWGQGTQVTVSS | high polyreactivity
QDQLVESGGGLVQAGGSLRLSCAASGGIIVSYAMGWYRQAPGKEMQLVAAITSGGGTSYSDSVKGRFTISRDNAKNTVYLQMNSLKPEDTAVYYCNADGYLAERFVIRLDEYRHYDYWGQGTQVTVSS | low polyreactivity
QDQLVESGGGLVQAGGSLRLSCAASGIIFDDNTLGWYRQAPGKERELVAAISSSGGSTYYADSVKGRFSISRDNAKNTVYLQMNSLKPEDTAVYYCAAAVYYTYPYIVYRNYPEFDYWGQGTQVTVSS | low polyreactivity
QDQLVESGGGLVQAGGSLRLSCAASGIIFSIYAMGWYRQAPGKERELVAVISRSSGSTYYADSVKGRFTISRDNAKNSVYLQMNSLKPEDTAVYYCAARKNRAYGYWGQGTQVTVSS | high polyreactivity
QDQLVESGGGLVQAGGSLRLSCAASGIISYKNVMGWYRQAPGKERELDAAITSGGSTNYADSVKGRFTISRDNAKNTVYLQMNSLKPEDTAVYYCAARYYGSYGKQPRARYGYWGQGTQVTVSS | high polyreactivity
QDQLVESGGGLVQAGGSLRLSCAASGITFAGNAMGWYRQAPGKERELVAAISGSGGSTSYADSVKGRFTISRDNAKNTVYLQMNSLKPEDTAVYYCAAASRLYNWHALFGSWGQGTQVTVSS | low polyreactivity

Sequence | polyreactivity (PSR sort gate)
QDQLVESGGGLVQAGGSLRLSCAASGITFFYYAMGWYRQAPGKERELVAAINWSGRTYYADSVKGRFTISRDNAKNTVYLQINSLKPEDTAVYYCAAVTYGPGVSVMDYWGQGTQVTVSS | low polyreactivity
QDQLVESGGGLVQAGGSLRLSCAASGITFNAYVMGWYRQAPGKERELVAAISVSDDYTYYADSVKGRFTISRDNAKNTVYLQINSLKPEDTAVYYCAAEWWDVIAPYDYWGQGTQVTVSS | low polyreactivity
QDQLVESGGGLVQAGGSLRLSCAASGITFWYYAMGWYRQAPGKERELVAAISQSGGSTFYADSVKGRFTISRDNAKNTVYLQMNRLKPEVTAVYYCATGFFRYLAKFKTYRYDYWGQGTQVTVSS | high polyreactivity
QDQLVESGGGLVQAGGSLRLSCAASGITIWRYAMGWYRQAPGKERELVAAISWSGSRTYYADSVKGRFTISRDNAKNTVYLQMNSLKPEDTAVYYCAAAFDLWITITGFDYWGQGTQVTVSS | low polyreactivity
QDQLVESGGGLVQAGGSLRLSCAASGLIFARYAMGWYIQAPGKERELVAVISGRGGGTYYADSVKGRFTISRDNAKNTVYLQMNSLKPEDTAVYYCNKYGYKGGVGYDYWGQGTQVTVSS | high polyreactivity
QDQLVESGGGLVQAGGSLRLSCAASGLNFRFYAMGWYRTATGKERELVAAISSRGGSTYYAHSVKGRFTISRDNSKNTFYLQMISLKPEDTWVYYCAADYGDEYEYCGQGTQVTVSS | high polyreactivity
QDQLVESGGGLVQAGGSLRLSCAASGLTFDWYTMGWYRQAPGKERELVATINSGGSTDYADSVKGRFTISRDNAKNTVYLQMNSLKPEDTAVYYCNAEYGYSGVGDDYWGQGTQVTVSS | low polyreactivity
QDQLVESGGGLVQAGGSLRLSCAASGLTFKYYTMGWYRQAAGKERELVAYISRTGRTSYADSVKGRFTISRDNAKNTVYLQMNSLNPEDTGVYYCNADFYVSGYSLFDSIYDYWGQGTQVTVSS | high polyreactivity
QDQLVESGGGLVQAGGSLRLSCAASGLTFQSYAMGWYRQAPGKERELVATISNGSSTYYADSVKGRFTISRDNAKNTVYLQMNSLKPEDTAVYYFAKDYYYSRNPLYGLDYWGQGTQVTVSS | low polyreactivity
QDQLVESGGGLVQAGGSLRLSCAASGLTFQYNTMGWYRQAPGKERELVARINWGGDSTYYADSVKGRFTISRDNAKNTVYLQLYSLKPEVTAVYYCAAPGYSGRYGYYTYYLYVYWGQGTQVTVSS | low polyreactivity
QDQLVESGGGLVQAGGSLRLSCAASGLTYRLNAMGWYRQAPGKEREFVAAISAIGDRTYYADSVKGRFTISRDNAKNTVYLQMNSLKPEDTSVYYCNVTPRSAQVRIGNYWGQGTQVTVSS | high polyreactivity
QDQLVESGGGLVQAGGSLRLSCAASGNNYWTNAMGWYRQAPGKERELVAAISWSGDSTYYADSVKGRFTISRDNAKNTVYLQLNSLKPEDTAVYYCAVLDVYRYRMDYWGQGTQVTVSS | low polyreactivity
QDQLVESGGGLVQAGGSLRLSCAASGNTFTVNAMGWYRQAPGKERELVATINSTGGSTYYADSVKGRFTISRDNAKNTVYLQMNSLKPEDPAVYYAGSSNSFAFGGYDYWGQGTQVTVSS | low polyreactivity
QDQLVESGGGLVQAGGSLRLSCAASGPIFYSNAMGWYRQAPGKERELVAAISSGDGITYYADSVKGRFTISRDNAKNTVYLQMNSLKPEDTAVYYCAADGYYDYPYSGDYWGQGTQVTVSS | high polyreactivity
QDQLVESGGGLVQAGGSLRLSCAASGRIFAGYAMGWYRQAPGKERELVASIRSSGSTYYADSVKGRFTISRDNAKNTVYLQMNSLKPEDTAVYYCAARSGYFRSRFDYWGQCTQVTVSS | high polyreactivity
QDQLVESGGGLVQAGGSLRLSCAASGRIFFTNAMGWYRQAPGKERELVASIDDTGSTNYADSVKGRFTISRDNAKNTVYLQMNSLKPEDTATSTQGDYWGQGTQVTVSS | low polyreactivity
QDQLVESGGGLVQAGGSLRLSCAASGRIFKSYAMGWYRQAPGKERELVAAIGSRTYYADSVKGRFTISRDNAKNTVYLQMNSLKPEDTAVYYCAVEVWGNSKRYYYWGQGTQVTVSS | high polyreactivity
QDQLVESGGGLVQAGGSLRLSCAASGRIFPYYAMGWYRQAPGTERELVAAINSGGSTYYADSVKGRFPISRDNAKNTVYLQMNSLKPEDTAVNYCNADVLYEDGFFWDDYWGQGTQVTVSS | low polyreactivity
QDQLVESGGGLVQAGGSLRLSCAASGRIFRYYTRGWYRQAPGKERELVAAIRWSGSTTYYADSVKGRFTISRDYAKNTVYLLMNSLKPEDTAVYYCDARWSYPRWEFDYWGQGTQVTVSS | high polyreactivity
QDQLVESGGGLVQAGGSLRLSCAASGRIFTGNAMGWYRQAHGKERELVAAISASGSSTYYADSVKGRFTISRDNAKNTVYLQMNSLKPEDTAVYYCAADGWYGYYYWGQGTLVTVSS | high polyreactivity
QDQLVESGGGLVQAGGSLRLSCAASGRIFTGNVMGWYRQAPGKERELVAAITYRGGSTYYADSVKGRFTISRDNAKNTVFLQMNSLKPEDTAVYYCNTGWDPYGYDYWGQGTQVTVSS | low polyreactivity

From the nanobody polyreactivity screen of Harvey et al. (2022)
